Measurements as given in PMC11602913 (EJNMMI Radiopharmacy and Chemistry, 2024).

What was measured:
[1] = DOTA and its derivatives; ref Mirzadeh et al. [1993]; Bauer et al. [2024]; cited from earlier work
From the text: (§1) The well-known chelator DOTA and its derivatives tend to lose up to 40% of ^212Bi from its ^212Pb-complexes due to β^–-conversion accompanied by 38% conversion electrons and a cascade of Auger-Meitner electrons (Mirzadeh et al. [1993]; Bauer et al. [2024]). […] PSC-PEG2-TOC (VMT-α-NET) is a somatostatin receptor subtype 2 (SSTR2) targeting peptide of very high stability for the treatment of neuroendocrine tumours ...

[2] = tested on: somatostatin receptor subtype 2 (SSTR2); conditions: ref Li et al. [2023]; cited from earlier work
From the text: as §1

[3] = tested on: neuroendocrine tumours (NET); assay: Individual patient application of the 212Pb-labelled peptide; assay type: in vivo, human; conditions: patients, doses of 1–1.5 MBq/kg
Description: The precursor concentration (0.1 µg/MBq) results in a maximum mass of 50 µg (31.7 nmol) for 500 MBq ^212Pb-labelled peptide, which is half to the mass used for routine ^177Lu-preparations with 5000 MBq (Brogsitter et al. [2017]). At this concentration, any ^212Bi generated during the reaction time by free ^212Pb is rebound by the precursor (Li et al. [2023]). Typically, doses of 1–1.5 MBq/kg were administered per patient. […] The detailed results of patient treatments will be discussed in a further publication.

[4] = Stability of the 212Pb-labelled product at room temperature (radio-TLC); assay type: physicochemical
Description: Since the radiolysis and alpha decay is often discussed as fatal for the radiolabelled molecules in solution (Roscher et al. [2020]), the stability of the ^212Pb-labelled product was tested at room temperature. A TLC sample was taken from the product vial 4 h after radiosynthesis. Right after development of the TLC strip, > 20% of activity was found as unbound activity at the front of the TLC (Fig. S3). […] The activity at the front of the TLC was mainly due to free ^208Tl, which is reasonable due to 36% direct alpha decay from ^212Bi.
RCP was monitored by thin-layer chromatography (TLC) on iTLC-SG plates (Agilent, Santa Clara, California, USA). Measurement of the radionuclidic purity (RNP) and evaluation of the radio-TLC and was performed with a thin-layer scanner (MiniScanPRO + , Eckert&Ziegler Eurotope GmbH, Berlin, Germany) equipped with a Model 43–2 alpha detector ZnS(Ag) scintillator (Ludlum Measurements, Sweetwater, Texas, USA) and a built-in multi-channel analyzer for gamma spectroscopy.

O=C(O)CN1CCN(CC(=O)O)CCN(CC(=O)O)CCN(CC(=O)O)CC1 [DOTA]
loss of 212Bi from 212Pb-complexes due to β−-conversion [1]: up to 40%

PSC-PEG2-TOC [VMT-α-NET]
renal excretion [2]: fast renal excretion
tumour accumulation [2]: rapid tumour accumulation
tumour retention [2]: high tumour retention

[^212Pb]Pb-PSC-PEG2-TOC [[^212Pb]Pb-VMT-α-NET]
disease response in individual patient application [3]: stable disease for more than six months
free 212Bi together with free 208Tl daughter nuclides observed in the TLCs ([4]; 4 h after radiosynthesis, radio-TLC): up to 20%
spot for unbound radionuclides on TLC ([4]; product vial at room temperature, TLC sample taken 4 h after radiosynthesis, measured 10 h after development of the TLC strip, iTLC-SG, citrate eluant (Fig. S4)): below 5%
unbound activity at the front of the TLC ([4]; product vial at room temperature, TLC sample taken 4 h after radiosynthesis, measured right after development of the TLC strip, iTLC-SG, citrate eluant (Fig. S3)): > 20%
radiolysis of the 212Pb-labelled product ([4]; room temperature, within 4 h after radiosynthesis, radio-TLC): no significant radiolysis
